According to FireProtDB (doi:10.1021/bi992257j):

B1: Rubredoxin, P24297 (parent)
chain: MAKWVCKICGYIYDEDAGDPDNGISPGTKFEELPDDWVCPICGAPKSEFEKLED

Variants of: B1
Details: Pyrococcus furiosus (strain ATCC 43587 / DSM 3638 / JCM 8422 / Vc1), pH 6.3, CD, Sodium phosphate 50 mM, reversible: yes, structure 1BRF, whole UniProt chain shown; for denaturant m value / denaturant midpoint (higher = more stable) / unfolding free energy: 1 °C; for Tm: Thermal

| Variant | denaturant m value (GdnHCl) [kcal/mol/M] | denaturant midpoint (higher = more stable) (GdnHCl) [M] | unfolding free energy (GdnHCl) [kcal/mol] | Tm [°C] | denaturant m value (Urea) [kcal/mol/M] | denaturant midpoint (higher = more stable) (Urea) [M] | unfolding free energy (Urea) [kcal/mol] |
| --- | --- | --- | --- | --- | --- | --- | --- |
| MAKWVLKITGYIYDEDAGDPDNGISPGTKFEELPDDWVAPITGAPKSEFEKLED [C6L C9T C39A C42T] | 1.9 | 1.68 | 3.2 | 82 | – | – | – |
| MQKWVLKITGYIYDQDAGDPDNGISPGTKFEELPDDWVAPITGAPKSEFEKLED [C6L C9T C39A C42T A2Q E15Q] | 3 | 0.5 | 1.5 | 39 | 1.03 | 2 | 2.1 |
| MAKWVLKITGYIYDQDAGDPDNGISPGTKFEELPDDWVAPITGAPKSEFEKLED [C6L C9T C39A C42T E15Q] | 2.5 | 0.63 | 1.7 | 57 | 0.91 | 3 | 2.7 |
| MAKWVLKITGYIYDEDAGDPDNGISPGTKFEELPDDWVAPITGAPKSEFAKLED [C6L C9T C39A C42T E50A] | 2.3 | 1.35 | 3.1 | 77 | 0.86 | 4.8 | 4.1 |
| MAKWVLAITGYIYDEDAGDPDNGISPGTKFEELPDDWVAPITGAPKSEFEKLED [C6L C9T C39A C42T K7A] | 2 | 1.6 | 3.2 | 74 | 0.81 | 4.9 | 4 |
| MAKWVLAITGYIYDEDAGDPDNGISPGTKFEELPDDWVAPITGAPKSEFAKLED [C6L C9T C39A C42T K7A E50A] | 2.2 | 1.27 | 2.8 | 74 | 0.84 | 4.5 | 3.8 |
| MQKWVLKITGYIYDEDAGDPDNGISPGTKFEELPDDWVAPITGAPKSEFEKLED [C6L C9T C39A C42T A2Q] | – | – | – | 63 | 0.93 | 3.8 | 3.5 |
| MQKWVLKITGYIYDTDAGDPDNGISPGTKFEELPDDWVAPITGAPKSEFEKLED [C6L C9T C39A C42T A2Q E15T] | – | – | – | 41 | 1.03 | 1.6 | 1.7 |
| MAKWVLKITGYIYDTDAGDPDNGISPGTKFEELPDDWVAPITGAPKSEFEKLED [C6L C9T C39A C42T E15T] | – | – | – | 38 | 0.98 | 1.3 | 1.3 |
